Source: PMC2555995 (The Journal of Biological Chemistry, 2008)

T1: His6-Nab2 (S. cerevisiae, UniProt P32505 1-525)
T1 sequence (looked up): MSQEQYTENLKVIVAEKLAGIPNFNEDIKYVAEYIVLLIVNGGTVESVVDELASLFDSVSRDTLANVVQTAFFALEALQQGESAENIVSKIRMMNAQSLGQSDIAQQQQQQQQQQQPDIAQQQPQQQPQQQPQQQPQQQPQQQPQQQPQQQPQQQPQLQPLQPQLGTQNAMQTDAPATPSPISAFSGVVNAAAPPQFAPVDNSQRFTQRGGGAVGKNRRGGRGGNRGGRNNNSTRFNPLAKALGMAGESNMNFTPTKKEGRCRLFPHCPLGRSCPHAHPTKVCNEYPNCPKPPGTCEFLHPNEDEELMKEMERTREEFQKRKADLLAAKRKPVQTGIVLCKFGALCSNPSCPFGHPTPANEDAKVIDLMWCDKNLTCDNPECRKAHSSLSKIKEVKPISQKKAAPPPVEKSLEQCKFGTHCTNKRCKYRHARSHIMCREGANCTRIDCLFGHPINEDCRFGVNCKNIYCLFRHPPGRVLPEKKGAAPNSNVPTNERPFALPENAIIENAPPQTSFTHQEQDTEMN


Tests used:
[1] = biological target: His6-S-Tag-Mlp1-NBD (residues 1586–1768) (S. cerevisiae, UniProt Q02455 1586-1768); assay: ELISA
His6-Nab2 = biological target: T1, His6-Nab2; assay: pull-down

Row | Binder | Kd [1] [nM] | binding result (His6-Nab2)
1 | GST-Nab2-N-F72D (residues 1–97) (domain or fragment, S. cerevisiae, UniProt P32505 1-97, looked up) MSQEQYTENLKVIVAEKLAGIPNFNEDIKYVAEYIVLLIVNGGTVESVVDELASLFDSVSRDTLANVVQTADFALEALQQGESAENIVSKIRMMNAQ | 2310 | 
2 | GST-CT-Mlp1 (residues 1490–1875) (domain or fragment, S. cerevisiae, UniProt Q02455 1490-1875, looked up) AQERLNQPSNINMEEIKKKWESEHEQEVSQKIREAEEALKKRIRLPTEEKINKIIERKKEELEKEFEEKVEERIKSMEQSGEIDVVLRKQLEAKVQEKQKELENEYNKKLQEELKDVPHSSHISDDERDKLRAEIESRLREEFNNELQAIKKKSFDEGKQQAMMKTTLLERKLAKMESQLSETKQSAESPPKSVNNVQNPLLGLPRKIEENSNSPFNPLLSGEKLLKLNSKSSSGGFNPFTSPSPNKHLQNDNDKRESLANKTDPPTHLEPSFNIPASRGLISSSSTLSTDTNDEELTSNNPAQKDSSNRNVQSEEDTEKKKEGEPVKRGEAIEEQTKSNKRPIDEVGELKNDEDDTTENINESKKIKTEDEEEKETDKVNDENSI |  | binds

Next, values leading:

Row | Kd [1] [nM] | binding result (His6-Nab2) | Binder
3 | 1260 |  | GST-Nab2-N-WT (residues 1–97) (domain or fragment, S. cerevisiae, UniProt P32505 1-97, looked up) MSQEQYTENLKVIVAEKLAGIPNFNEDIKYVAEYIVLLIVNGGTVESVVDELASLFDSVSRDTLANVVQTAFFALEALQQGESAENIVSKIRMMNAQ
4 | 830 |  | GST-Nab2-N-F73W (residues 1–97) (domain or fragment, S. cerevisiae, UniProt P32505 1-97, looked up) MSQEQYTENLKVIVAEKLAGIPNFNEDIKYVAEYIVLLIVNGGTVESVVDELASLFDSVSRDTLANVVQTAFWALEALQQGESAENIVSKIRMMNAQ
